Measured values reported in patent US20260042834A1 (HBM ALPHA THERAPEUTICS, published 2026).
Where “and” joins values, the source holds several entries; their conditions need not be identical. Equal values may be shown once. Read-outs that look alike come from different tables or passages of the source.

T1: corticotropin-releasing hormone (CRH) peptide (human and mouse (same sequence), not fully specified)
T1 peptide: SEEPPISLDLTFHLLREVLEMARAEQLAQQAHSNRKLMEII


Tests used:
Assay in all cases: cell-based or functional assay
[1] = target: T1, corticotropin-releasing hormone (CRH) …
[2] = target: T1, corticotropin-releasing hormone (CRH) …
[3] = target: T1, corticotropin-releasing hormone (CRH) …

hCRHR1 Luciferase Reporter Assay IC50 [3]	mCrhr1 Luciferase Reporter Assay IC50 [3]	Binder	also measured
0.11 nM	0.29 nM	PR302341-10 (antibody, human IgG1, kappa, V domains shown) VH: QVQLVQSGAEVKKPGASVKVSCKASGYTFTDYFMKWVRQAPGQGLEWMGVINPNNGDIFYNQKFKGRVTMTVDKSTSTAYMELSSLRSEDTAVYYCARGTDRALFAYWGQGTLVTVSS VL: DVVMTQTPLSSPVTLGQPASISCRSGQSIVHSDGNTYLEWYQQRPGQPPRLLIYKVSNRFSGVPDRFSGSGAGTDFTLKISRVEAEDLGVYYCFQGSHIPWTFGGGTKVEIKR	hCRHR1 Luciferase Reporter Assay IC50 [2]: 0.342 nM; mCrhr1 Luciferase Reporter Assay IC50 [2]: 1.6 nM
–	0.611 nM	PR302341 (antibody, human IgG1, kappa, V domains shown) VH: EVQLQQSGPELVKPGASVKMSCKASGYTFTDYFMKWVKQSHGESLEWIGVINPNNGDIFYNQKFKGKATLTVDKSSSTAFMQLNSLTSEDSAVYSCARGTDRALFAYWGQGTLVAVSA VL: DVLMTQTPLSLPVSLGDQASISCRSGQSIVHSDGNTYLEWYLQRPGQSPRLLIYKVSNRFSGVPDRFSGSGSGTDFTLKISRVGAEDLGIYYCFQGSHIPWTFGGGTKLEVKR	hCRHR1 Luciferase Reporter Assay IC50 [2]: 0.437 nM; mCrhr1 Luciferase Reporter Assay IC50 [2]: 1.71 nM
0.075 nM	–	PR302341-14 (antibody, human IgG1, kappa, V domains shown) VH: QVQLVQSGAEVKKPGASVKVSCKASGYTFTDYFMKWVRQAPGQGLEWMGVINPNNGDIFYNQKFKGRVTMTVDKSTSTAYMELSSLRSEDTAVYYCARGTDRALFAYWGQGTLVTVSS VL: DVLMTQTPLSLPVSLGDQASISCRSGQSIVHSDGNTYLEWYLQRPGQSPRLLIYKVSNRFSGVPDRFSGSGSGTDFTLKISRVGAEDLGIYYCFQGSHIPWTFGGGTKLEVKR	–
0.043 nM	0.111 nM	PR302341-23 (antibody, human IgG1, kappa, V domains shown) VH: QVQLVQSGAEVKKPGASVKVSCKASGYTFTDYFMKWVRQAPGQGLEWMGVINPNNGDIFYNQKFKGRVTMTVDKSISTAYMELSRLRSDDTAVYYCARGTDRALFAYWGQGTLVTVSS VL: DVVMTQSPLSLPVTLGQPASISCRSGQSIVHSDGNTYLEWYQQRPGQSPRLLIYKVSNRFSGVPDRFSGSGSGTDFTLKISRVEAEDLGVYYCFQGSHIPWTFGGGTKVEIKR	hCRHR1 Luciferase Reporter Assay IC50 [2]: 0.351 nM; mCrhr1 Luciferase Reporter Assay IC50 [2]: 1.19 nM
0.225 nM	–	PR302341-16 (antibody, human IgG1, kappa, V domains shown) VH: QVQLVQSGAEVKKPGASVKVSCKASGYTFTDYFMKWVRQAPGQRLEWMGVINPNNGDIFYNQKFKGRVTITVDKSASTAYMELSSLRSEDTAVYYCARGTDRALFAYWGQGTLVTVSS VL: DVLMTQTPLSLPVSLGDQASISCRSGQSIVHSDGNTYLEWYLQRPGQSPRLLIYKVSNRFSGVPDRFSGSGSGTDFTLKISRVGAEDLGIYYCFQGSHIPWTFGGGTKLEVKR	–
0.121 nM	0.365 nM	PR302341-19 (antibody, human IgG1, kappa, V domains shown) VH: QVQLVQSGAEVKKPGASVKVSCKASGYTFTDYFMKWVRQAPGQGLEWMGVINPNNGDIFYNQKFKGRVTMTRDTSTSTVYMELSSLRSEDTAVYYCARGTDRALFAYWGQGTLVTVSS VL: DVVMTQSPLSLPVTLGQPASISCRSGQSIVHSDGNTYLEWYQQRPGQSPRLLIYKVSNRFSGVPDRFSGSGSGTDFTLKISRVEAEDLGVYYCFQGSHIPWTFGGGTKVEIKR	–
0.124 nM	–	PR302341-15 (antibody, human IgG1, kappa, V domains shown) VH: QVQLVQSGAEVKKPGASVKVSCKASGYTFTDYFMKWVRQAPGQRLEWMGVINPNNGDIFYNQKFKGRVTITRDTSASTAYMELSSLRSEDTAVYYCARGTDRALFAYWGQGTLVTVSS VL: DVLMTQTPLSLPVSLGDQASISCRSGQSIVHSDGNTYLEWYLQRPGQSPRLLIYKVSNRFSGVPDRFSGSGSGTDFTLKISRVGAEDLGIYYCFQGSHIPWTFGGGTKLEVKR	–

The next lines start with the binder.

Binder	hCRHR1 Luciferase Reporter Assay IC50 [3]	mCrhr1 Luciferase Reporter Assay IC50 [3]	also measured
PR302334 (antibody, human IgG1, kappa, V domains shown) VH: EVKLVESGGGLVKPGGSLKLSCAASGFTFSTYAMSWVRQTPEKRLEWVASIRSGGTTYYPDSVKGRFTISRDNARNILYLQMSSLRSEDTAIYYCTRGIDWGQGTLVTVSA VL: NIVMTQTPKFLLVSAGDRITITCKASQSVNNDVAWYQQKPGQSPKLLIYYASNRYTGVPDRFTGSGYGTDFTFTISTVQAEDLAVYFCQQDYSSWTFGGGTNLEIKR	–	–	hCRHR1 Luciferase Reporter Assay IC50 [1]: 0.26 nM and 0.644 nM; mCrhr1 Luciferase Reporter Assay IC50 [1]: 0.672 nM
PR302334-1 (antibody, human IgG1, kappa, V domains shown) VH: EVKLVESGGGLVKPGGSLKLSCAASGFTFSTYAMSWVRQTPEKRLEWVASIRSGGTTYYPDSVKGRFTISRDNARNILYLQMSSLRSEDTAIYYCTRGIDWGQGTLVTVSA VL: EIVMTQSPATLSVSPGERATLSCKASQSVNNDVAWYQQKPGQAPRLLIYYASNRYTGIPARFSGSGSGTEFTLTISSLQSEDFAVYYCQQDYSSWTFGGGTKVEIKR	–	–	hCRHR1 Luciferase Reporter Assay IC50 [1]: 0.624 nM
PR302334-3 (antibody, human IgG1, kappa, V domains shown) VH: EVKLVESGGGLVKPGGSLKLSCAASGFTFSTYAMSWVRQTPEKRLEWVASIRSGGTTYYPDSVKGRFTISRDNARNILYLQMSSLRSEDTAIYYCTRGIDWGQGTLVTVSA VL: DIVMTQSPDSLAVSLGERATINCKASQSVNNDVAWYQQKPGQPPRLLIYYASNRYTGVPDRFSGSGSGTDFTLTISSLQAEDVAVYYCQQDYSSWTFGGGTKVEIKR	–	–	hCRHR1 Luciferase Reporter Assay IC50 [1]: 0.542 nM
PR302334-2 (antibody, human IgG1, kappa, V domains shown) VH: EVKLVESGGGLVKPGGSLKLSCAASGFTFSTYAMSWVRQTPEKRLEWVASIRSGGTTYYPDSVKGRFTISRDNARNILYLQMSSLRSEDTAIYYCTRGIDWGQGTLVTVSA VL: EIVMTQSPATLSVSPGERATLSCKASQSVNNDVAWYQQKPGQAPRLLIYYASNRYTGIPARFSGSGSGTEFTLTISSLQSEDLAVYFCQQDYSSWTFGGGTKVEIKR	–	–	hCRHR1 Luciferase Reporter Assay IC50 [1]: 0.597 nM
PR302341-25 (antibody, human IgG1, kappa, V domains shown) VH: QVQLVQSGAEVKKPGASVKVSCKASGYTFTDYFMKWVRQAPGQRLEWMGVINPNNGDIFYNQKFKGRVTITVDKSASTAYMELSSLRSEDTAVYYCARGTDRALFAYWGQGTLVTVSS VL: DVVMTQTPLSLSVTPGQPASISCRSGQSIVHSDGNTYLEWYLQKPGQSPQLLIYKVSNRFSGVPDRFSGSGSGTDFTLKISRVEAEDLGVYYCFQGSHIPWTFGGGTKVEIKR	0.711 nM	–	–
PR302341-24 (antibody, human IgG1, kappa, V domains shown) VH: QVQLVQSGAEVKKPGASVKVSCKASGYTFTDYFMKWVRQAPGQRLEWMGVINPNNGDIFYNQKFKGRVTITVDKSASTAYMELSSLRSEDTAVYYCARGTDRALFAYWGQGTLVTVSS VL: DVVMTQTPLSSPVTLGQPASISCRSGQSIVHSDGNTYLEWYQQRPGQPPRLLIYKVSNRFSGVPDRFSGSGAGTDFTLKISRVEAEDLGVYYCFQGSHIPWTFGGGTKVEIKR	0.192 nM	0.156 nM	–
PR302341-26 (antibody, human IgG1, kappa, V domains shown) VH: QVQLVQSGAEVKKPGASVKVSCKASGYTFTDYFMKWVRQAPGQGLEWMGVINPNNGDIFYNQKFKGRVTMTVDKSISTAYMELSRLRSDDTAVYYCARGTDRALFAYWGQGTLVTVSS VL: DVVMTQTPLSSPVTLGQPASISCRSGQSIVHSDGNTYLEWYQQRPGQPPRLLIYKVSNRFSGVPDRFSGSGAGTDFTLKISRVEAEDLGVYYCFQGSHIPWTFGGGTKVEIKR	0.273 nM	–	–
PR302341-27 (antibody, human IgG1, kappa, V domains shown) VH: QVQLVQSGAEVKKPGASVKVSCKASGYTFTDYFMKWVRQAPGQGLEWMGVINPNNGDIFYNQKFKGRVTMTVDKSISTAYMELSRLRSDDTAVYYCARGTDRALFAYWGQGTLVTVSS VL: DVVMTQTPLSLSVTPGQPASISCRSGQSIVHSDGNTYLEWYLQKPGQSPQLLIYKVSNRFSGVPDRFSGSGSGTDFTLKISRVEAEDLGVYYCFQGSHIPWTFGGGTKVEIKR	0.518 nM	–	–
PR302341-22 (antibody, human IgG1, kappa, V domains shown) VH: QVQLVQSGAEVKKPGASVKVSCKASGYTFTDYFMKWVRQAPGQGLEWMGVINPNNGDIFYNQKFKGRVTMTRDTSISTAYMELSRLRSDDTAVYYCARGTDRALFAYWGQGTLVTVSS VL: DVVMTQSPLSLPVTLGQPASISCRSGQSIVHSDGNTYLEWYQQRPGQSPRLLIYKVSNRFSGVPDRFSGSGSGTDFTLKISRVEAEDLGVYYCFQGSHIPWTFGGGTKVEIKR	0.243 nM	–	–
PR302341-18 (antibody, human IgG1, kappa, V domains shown) VH: QVQLVQSGAEVKKPGASVKVSCKASGYTFTDYFMKWVRQAPGQGLEWMGVINPNNGDIFYNQKFKGRVTMTVDKSISTAYMELSRLRSDDTAVYYCARGTDRALFAYWGQGTLVTVSS VL: DVLMTQTPLSLPVSLGDQASISCRSGQSIVHSDGNTYLEWYLQRPGQSPRLLIYKVSNRFSGVPDRFSGSGSGTDFTLKISRVGAEDLGIYYCFQGSHIPWTFGGGTKLEVKR	0.169 nM	–	–
PR302341-20 (antibody, human IgG1, kappa, V domains shown) VH: QVQLVQSGAEVKKPGASVKVSCKASGYTFTDYFMKWVRQAPGQRLEWMGVINPNNGDIFYNQKFKGRVTITRDTSASTAYMELSSLRSEDTAVYYCARGTDRALFAYWGQGTLVTVSS VL: DVVMTQSPLSLPVTLGQPASISCRSGQSIVHSDGNTYLEWYQQRPGQSPRLLIYKVSNRFSGVPDRFSGSGSGTDFTLKISRVEAEDLGVYYCFQGSHIPWTFGGGTKVEIKR	0.162 nM	0.451 nM	hCRHR1 Luciferase Reporter Assay IC50 [2]: 0.188 nM; mCrhr1 Luciferase Reporter Assay IC50 [2]: 1.62 nM
PR302341-17 (antibody, human IgG1, kappa, V domains shown) VH: QVQLVQSGAEVKKPGASVKVSCKASGYTFTDYFMKWVRQAPGQGLEWMGVINPNNGDIFYNQKFKGRVTMTRDTSISTAYMELSRLRSDDTAVYYCARGTDRALFAYWGQGTLVTVSS VL: DVLMTQTPLSLPVSLGDQASISCRSGQSIVHSDGNTYLEWYLQRPGQSPRLLIYKVSNRFSGVPDRFSGSGSGTDFTLKISRVGAEDLGIYYCFQGSHIPWTFGGGTKLEVKR	0.104 nM	–	–
PR302341-21 (antibody, human IgG1, kappa, V domains shown) VH: QVQLVQSGAEVKKPGASVKVSCKASGYTFTDYFMKWVRQAPGQRLEWMGVINPNNGDIFYNQKFKGRVTITVDKSASTAYMELSSLRSEDTAVYYCARGTDRALFAYWGQGTLVTVSS VL: DVVMTQSPLSLPVTLGQPASISCRSGQSIVHSDGNTYLEWYQQRPGQSPRLLIYKVSNRFSGVPDRFSGSGSGTDFTLKISRVEAEDLGVYYCFQGSHIPWTFGGGTKVEIKR	0.177 nM	0.541 nM	–
